One test concerns the target HLA-A*30:01. As to the kind of experiment: IEDB peptide-MHC binding, purified MHC/competitive/fluorescence; filed as Kd, often an IC50 or EC50 that approximates it; ≥ and ≤ were set here for values at or beyond the usual limits of such assays. Particulars: source organism: Vibrio cholerae 2740-80.
The next test concerns the target HLA-B*39:01. Description: IEDB peptide-MHC binding, purified MHC/direct/fluorescence; filed as Kd, often an IC50 or EC50 that approximates it; ≥ and ≤ were set here for values at or beyond the usual limits of such assays.
The target in a further test is HLA-B*08:03. The description is as above.
For a further test, the target named is HLA-A*11:01. Described as above.
The target of test [1] is HLA-B*15:17. The description is as above.
The target in another test is HLA-B*40:01. The description is as above.
In a further test the target is HLA-B*08:02. Described as above.
A further test concerns the target HLA-B*15:09. The description is as above. Particulars: source organism: Vibrio cholerae V52.
Test [2] deals with HLA-A*02:01. The description is as above.
The target in another test is HLA-B*48:01. The description is as above.
The next test has as its target HLA-A*26:03. The test is described as above.
The target of another test is HLA-A*31:01. Described as above.
The next test has as its target HLA-B*44:02. The description is as above. Particulars: source organism: Vibrio cholerae.
Test [3] has as its target HLA-B*08:01. Described as above.
The next test has as its target HLA-A*69:01. The test is described as above.
In the next test the target is HLA-B*27:05. Described as above.
The next test concerns the target HLA-B*18:01. Described as above.
A further test has as its target HLA-A*26:02. Described as above.
In a further test the target is HLA-B*57:01. The description is as above.
Another test deals with HLA-B*58:01. The description is as above.
Test [4] deals with HLA-B*07:02. The description is as above.
The next test concerns the target HLA-A*01:01. The description is as above.
The next test concerns the target HLA-A*68:02. Described as above.
For another test, the target named is HLA-A*26:01. Described as above. Particulars: source organism: Mycobacterium tuberculosis str. Haarlem.
Another test concerns the target HLA-B*46:01. The test is described as above.
In test [5] the target is HLA-B*15:01. The test is described as above.
In a further test the target is HLA-A*24:02. Description: IEDB peptide-MHC binding, purified MHC/competitive/fluorescence; ≥ and ≤ were set here for values at or beyond the usual limits of such assays.
Test [6] concerns the target HLA-B*08:01. Described as above.
For test [7], the target named is HLA-B*07:02. The test is described as above. Particulars: source organism: Zaire ebolavirus.
The next test deals with HLA-A*02:12. As to the kind of experiment: IEDB peptide-MHC binding, purified MHC/direct/fluorescence; filed as Kd, often an IC50 or EC50 that approximates it; ≥ and ≤ were set here for values at or beyond the usual limits of such assays. Particulars: source organism: Burkholderia mallei ATCC 23344.
A further test addresses HLA-A*24:03. Described as above. Conditions: source organism: Burkholderia mallei ATCC 23344.
In a further test the target is HLA-A*02:19. The description is as above. Particulars: source organism: Burkholderia mallei ATCC 23344.
A further test has as its target HLA-A*02:16. The test is described as above. Conditions: source organism: Burkholderia mallei ATCC 23344.
In a further test the target is HLA-A*29:02. The test is described as above. Conditions: source organism: Burkholderia mallei ATCC 23344.
The next test deals with HLA-B*27:03. The description is as above. Particulars: source organism: Burkholderia mallei ATCC 23344.
For the next test, the target named is HLA-A*03:01. The test is described as above. Particulars: source organism: Burkholderia mallei ATCC 23344.
Test [8] concerns the target HLA-A*02:01. Description: IEDB peptide-MHC binding, purified MHC/competitive/fluorescence; ≥ and ≤ were set here for values at or beyond the usual limits of such assays.
The target in test [9] is HLA-B*15:01. Described as above. Particulars: source organism: Zaire ebolavirus.
Test [10] has as its target HLA-B*15:17. Description: IEDB peptide-MHC binding, purified MHC/competitive/fluorescence; filed as Kd, often an IC50 or EC50 that approximates it; ≥ and ≤ were set here for values at or beyond the usual limits of such assays. Conditions: source organism: Vaccinia virus.
Another test addresses HLA-B*35:01. The test is described as above. Particulars: source organism: Vaccinia virus.
The target of another test is HLA-B*15:02. Description: IEDB peptide-MHC binding, purified MHC/direct/fluorescence; filed as Kd, often an IC50 or EC50 that approximates it; ≥ and ≤ were set here for values at or beyond the usual limits of such assays. Conditions: source organism: Aracatuba virus.
Where [11] appears, read: source organism: Vibrio cholerae V52.
The mark [12] stands for this setting: source organism: Vibrio cholerae.
The mark [13] stands for this setting: source organism: Mycobacterium tuberculosis str. Haarlem.
Where [14] appears, read: source organism: Mycobacterium tuberculosis.
Setting [15] is: source organism: Zaire ebolavirus.
The mark [16] stands for this setting: source organism: Burkholderia mallei ATCC 23344.
Where [17] appears, read: source organism: Aracatuba virus.
[18] abbreviates: source organism: Vaccinia virus Copenhagen.

Our source for the Kd and IC50 values is the Immune Epitope Database (IEDB).

pIC50, pKd: −log10 of the molar value.

By pKd is commonly meant the negative decadic logarithm of the Kd, by convention in mol/L. Low values mean a large Kd, high ones a small Kd. One may read the pIC50 as the IC50 on a negative log10 scale, so that one unit is a factor of ten.

Turning to REVFDYLLP, the pKd in the test with HLA-A*30:01 was no more than 4.70; in the test with HLA-B*39:01 (setting [11]) it was no more than 4.70; with HLA-B*08:03 (setting [11]) it was no more than 4.70; with HLA-A*11:01 (setting [12]), no more than 4.70; in the test with HLA-B*15:17 [1] (setting [12]), no more than 4.70; with HLA-B*40:01 (setting [12]), 7.11. The pKd in the test with HLA-B*08:02 (setting [11]), with HLA-B*15:09, in the test with HLA-A*02:01 [2] (setting [12]), with HLA-B*48:01 (setting [12]), with HLA-A*26:03 (setting [11]) and with HLA-A*31:01 (setting [12]) was no more than 4.70 each time. Further, the pKd with HLA-B*44:02, with HLA-B*08:01 [3] (setting [11]), with HLA-A*69:01 (setting [12]), in the test with HLA-B*27:05 (setting [12]), in the test with HLA-B*18:01 (setting [12]) and with HLA-A*26:02 (setting [11]) was no more than 4.70 in each case. Also, the pKd with HLA-B*57:01 (setting [12]), with HLA-B*58:01 (setting [12]), with HLA-B*07:02 [4] (setting [12]), with HLA-A*01:01 (setting [12]) and in the test with HLA-A*68:02 (setting [12]) was no more than 4.70 in each case.
KYFVRSTEK: the pKd with HLA-B*08:03 (setting [13]) is no more than 4.70; with HLA-A*11:01 (setting [14]), 5.75; with HLA-B*15:17 [1] (setting [14]), no more than 4.70; with HLA-B*40:01 (setting [14]), no more than 4.70; in the test with HLA-B*08:02 (setting [13]), no more than 4.70; with HLA-A*02:01 [2] (setting [14]) it was no more than 4.70. The pKd with HLA-B*48:01 (setting [14]) was no more than 4.70; in the test with HLA-A*26:03 (setting [13]) it was no more than 4.70; with HLA-A*31:01 (setting [14]), 8.68; with HLA-B*08:01 [3] (setting [13]) it was no more than 4.70; with HLA-B*27:05 (setting [14]), no more than 4.70; with HLA-B*18:01 (setting [14]), no more than 4.70. Further, the pKd with HLA-A*26:01, with HLA-A*26:02 (setting [13]), with HLA-B*46:01 (setting [14]), with HLA-B*57:01 (setting [14]), in the test with HLA-B*58:01 (setting [14]) and in the test with HLA-B*15:01 [5] (setting [14]) was no more than 4.70 each time. The pKd with HLA-B*07:02 [4] (setting [14]), with HLA-A*01:01 (setting [14]) and in the test with HLA-A*68:02 (setting [14]) was no more than 4.70 in each case.
For ERGVRLHPL, the pIC50 in the test with HLA-A*24:02 (setting [15]) is 4.35; with HLA-B*08:01 [6] (setting [15]), 5.05; with HLA-B*07:02 [7], no more than 4.02.
Consider MSADNAGAL, for which the pKd with HLA-A*02:12, in the test with HLA-A*24:03, in the test with HLA-A*02:19, in the test with HLA-A*02:16, with HLA-A*02:01 [2] (setting [16]) and with HLA-B*18:01 (setting [16]) was no more than 4.70 in each case. Further, the negative-log Kd (pKd) in the test with HLA-A*29:02, with HLA-B*57:01 (setting [16]), in the test with HLA-B*27:03 and in the test with HLA-A*03:01 was no more than 4.70 in each case.
In the case of VMNHKNKFM, the pIC50 with HLA-A*02:01 [8] (setting [15]) was 5.45; with HLA-A*24:02 (setting [15]), 5.67; with HLA-B*08:01 [6] (setting [15]) it was 5.08; with HLA-B*15:01 [9] it was 4.74.
As to LLLLISLVY, the pKd is no more than 4.70 in the test with HLA-B*15:17 [10]; no more than 4.70 with HLA-B*35:01; no more than 4.70 in the test with HLA-B*39:01 (source organism: Variola virus); no more than 4.70 in the test with HLA-A*11:01 (setting [17]); 5.34 in the test with HLA-B*15:02; no more than 4.70 with HLA-B*08:02 (source organism: Variola virus). In addition, the pKd with HLA-A*02:01 [2] (setting [17]), with HLA-B*48:01 (setting [17]), with HLA-A*26:03 (source organism: Variola virus), with HLA-A*31:01 (setting [17]), in the test with HLA-A*69:01 (setting [17]) and with HLA-B*27:05 (setting [17]) was no more than 4.70 in each case. For the same sequence, the pKd with HLA-A*26:02 (source organism: Variola virus), in the test with HLA-B*46:01 (setting [17]), with HLA-B*57:01 (setting [17]), with HLA-B*58:01 (setting [17]), with HLA-B*15:01 [5] (setting [17]) and with HLA-B*07:02 [4] (setting [17]) was no more than 4.70 each time. Further, the pKd with HLA-A*01:01 (setting [17]) and in the test with HLA-A*68:02 (setting [17]) was no more than 4.70 in each case.
As to YFLKIKVTA, the pIC50 was 5.20 with HLA-A*02:01 [8] (setting [18]), 5.42 with HLA-A*24:02 (setting [18]) and 5.05 in the test with HLA-B*08:01 [6] (setting [18]).
